From patent publication US20060140983A1

Target: MHC class I (HLA-ABC) on Me275 and Me290 melanoma cells
Assay: cell-based or functional assay

purified mouse anti-human HLA-ABC mAb (clone W6/32, DAKO) (antibody)
inhibition of specific lysis (4 hour 51Cr release assay): > 60%
specific lysis with W6/32 mAb (4 hour 51Cr release assay, E:T ratio 15:1): 4 % lysis
